Source: patent US20250152729A1 (CANCER RESEARCH TECHNOLOGY, published 2025)

Experiments:
[1] = target: T1, human SEMA4B expressed on expi293 cells (human, UniProt Q9NPR2 44-837); experiment: Mirrorball direct binding, dilution series on expi293 cells transiently transfected with human SEMA4B, anti-human Alexa Fluor 647
T1 construct: whole, on cells
T1 sequence (looked up): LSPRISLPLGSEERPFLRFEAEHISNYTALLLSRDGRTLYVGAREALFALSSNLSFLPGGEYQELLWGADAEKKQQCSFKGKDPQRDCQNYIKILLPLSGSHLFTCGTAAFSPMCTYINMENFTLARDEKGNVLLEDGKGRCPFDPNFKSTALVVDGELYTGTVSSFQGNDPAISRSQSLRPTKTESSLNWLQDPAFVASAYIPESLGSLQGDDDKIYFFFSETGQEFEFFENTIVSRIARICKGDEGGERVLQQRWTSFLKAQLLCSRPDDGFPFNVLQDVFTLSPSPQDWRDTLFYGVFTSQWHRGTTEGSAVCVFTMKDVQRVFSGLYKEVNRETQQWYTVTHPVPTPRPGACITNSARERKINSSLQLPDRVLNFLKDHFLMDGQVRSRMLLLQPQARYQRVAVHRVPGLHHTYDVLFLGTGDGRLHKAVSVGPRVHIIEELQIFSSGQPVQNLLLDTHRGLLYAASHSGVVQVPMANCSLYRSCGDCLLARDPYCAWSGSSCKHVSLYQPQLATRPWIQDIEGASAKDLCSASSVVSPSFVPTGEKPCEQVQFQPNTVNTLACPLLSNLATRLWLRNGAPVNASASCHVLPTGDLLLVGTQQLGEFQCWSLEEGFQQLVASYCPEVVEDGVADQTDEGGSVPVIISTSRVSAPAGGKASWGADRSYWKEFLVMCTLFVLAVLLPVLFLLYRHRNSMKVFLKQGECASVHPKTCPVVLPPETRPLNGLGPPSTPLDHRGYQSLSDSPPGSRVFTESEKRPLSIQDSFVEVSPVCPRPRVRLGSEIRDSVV
Text: (§1) Hits from the primary screening were re-formatted into the human Alya IgG1 vector and re-expressed and purified as described in section 4.1. In addition, a single clone was identified that contained an Asparagine deamidation motif (Asn Gly) within its VHCDR2. This potential sequence liability was de-risked by synthesising de novo two clonal variant VH genes (Asn Ala and Gln Gly) and cloning these sequences into the human Alya IgG1 expression vector. To determine the specificity profile of each purified human Alya IgG1, a dilution series was tested for binding to human SEMA4A, mouse SEMA4A, cyno SEMA4A, human SEMA4B and mock transfected cells (transient transfections set up in expi 293 cells.) The five assays employed methods described in section 2.3, using the appropriate cells and substituting the un-purified scFv periplasmic preparation with the recombinant human Alya IgG1 dilution series. Data was analysed as Count x median mean intensity (x FLU).

[2] = target: T2, cynomolgus SEMA4A expressed on expi293 cells (UniProt ID G7NV79) (cynomolgus, UniProt Q9H3S1 33-761 (human entry)); experiment: Mirrorball direct binding, dilution series on expi293 cells transiently transfected with cynomolgus SEMA4A, anti-human Alexa Fluor 647
T2 construct: Transient transfection in expi293 cells; also called cyno SEMA4A
T2 chain: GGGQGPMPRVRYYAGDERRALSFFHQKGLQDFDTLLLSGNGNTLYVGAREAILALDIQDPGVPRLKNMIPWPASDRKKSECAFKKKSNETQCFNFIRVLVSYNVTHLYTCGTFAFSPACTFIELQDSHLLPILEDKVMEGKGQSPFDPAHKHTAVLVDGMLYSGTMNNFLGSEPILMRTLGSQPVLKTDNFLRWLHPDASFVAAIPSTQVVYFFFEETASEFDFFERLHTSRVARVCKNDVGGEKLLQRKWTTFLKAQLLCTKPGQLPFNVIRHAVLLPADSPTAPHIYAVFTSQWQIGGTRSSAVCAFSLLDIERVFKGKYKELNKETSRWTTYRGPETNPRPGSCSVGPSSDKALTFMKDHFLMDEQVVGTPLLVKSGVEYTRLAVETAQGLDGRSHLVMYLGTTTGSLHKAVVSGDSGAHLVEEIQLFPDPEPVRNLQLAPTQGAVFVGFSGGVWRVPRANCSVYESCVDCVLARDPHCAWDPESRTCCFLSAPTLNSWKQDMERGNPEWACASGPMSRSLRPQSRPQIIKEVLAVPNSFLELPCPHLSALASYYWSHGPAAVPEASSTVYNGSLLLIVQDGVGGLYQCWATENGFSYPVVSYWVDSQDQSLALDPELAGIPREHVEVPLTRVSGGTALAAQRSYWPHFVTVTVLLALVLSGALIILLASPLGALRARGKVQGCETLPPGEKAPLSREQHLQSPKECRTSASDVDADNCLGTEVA
Text: as §1

[3] = target: T3, human SEMA4A expressed on cells (UniProt ID Q9H3S1, isoform 1) (human, UniProt Q9H3S1 33-761); experiment: Mirrorball direct binding, dilution series on expi293 cells transiently transfected with human SEMA4A, anti-human Alexa Fluor 647
T3 construct: Cell-surface SEMA4A: endogenous on MM.1S, NCI-H929 and Karpas-25 cells, or expi293 cells transfected with Origene SC323738; also called human Semaphorin4A; SEMA4A endogenously expressed on MM.1S cells
T3 sequence: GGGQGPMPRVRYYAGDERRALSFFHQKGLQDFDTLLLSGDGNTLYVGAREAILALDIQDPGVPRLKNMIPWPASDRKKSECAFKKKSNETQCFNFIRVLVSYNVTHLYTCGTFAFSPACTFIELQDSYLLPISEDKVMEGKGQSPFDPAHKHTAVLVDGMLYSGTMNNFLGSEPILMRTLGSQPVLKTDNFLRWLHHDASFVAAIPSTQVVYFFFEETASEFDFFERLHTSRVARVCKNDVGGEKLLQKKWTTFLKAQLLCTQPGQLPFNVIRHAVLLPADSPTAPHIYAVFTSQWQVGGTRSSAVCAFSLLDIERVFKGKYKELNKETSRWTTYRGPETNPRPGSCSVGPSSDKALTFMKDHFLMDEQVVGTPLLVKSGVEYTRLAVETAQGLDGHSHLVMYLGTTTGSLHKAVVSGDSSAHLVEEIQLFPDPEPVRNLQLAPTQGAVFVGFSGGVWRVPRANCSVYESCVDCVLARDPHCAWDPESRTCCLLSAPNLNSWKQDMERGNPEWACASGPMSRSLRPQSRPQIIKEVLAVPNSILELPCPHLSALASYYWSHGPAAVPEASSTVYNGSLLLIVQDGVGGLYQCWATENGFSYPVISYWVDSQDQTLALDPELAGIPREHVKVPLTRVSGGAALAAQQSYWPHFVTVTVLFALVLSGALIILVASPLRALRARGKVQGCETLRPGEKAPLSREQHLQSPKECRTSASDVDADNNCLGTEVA
Text: as §1

[4] = target: T4, mouse SEMA4A expressed on expi293 cells (UniProt ID Q62178) (mouse, UniProt Q62178 33-760); experiment: Mirrorball direct binding, dilution series on expi293 cells transiently transfected with mouse SEMA4A, anti-human Alexa Fluor 647
T4 construct: Transient transfection in expi293 cells
T4 sequence: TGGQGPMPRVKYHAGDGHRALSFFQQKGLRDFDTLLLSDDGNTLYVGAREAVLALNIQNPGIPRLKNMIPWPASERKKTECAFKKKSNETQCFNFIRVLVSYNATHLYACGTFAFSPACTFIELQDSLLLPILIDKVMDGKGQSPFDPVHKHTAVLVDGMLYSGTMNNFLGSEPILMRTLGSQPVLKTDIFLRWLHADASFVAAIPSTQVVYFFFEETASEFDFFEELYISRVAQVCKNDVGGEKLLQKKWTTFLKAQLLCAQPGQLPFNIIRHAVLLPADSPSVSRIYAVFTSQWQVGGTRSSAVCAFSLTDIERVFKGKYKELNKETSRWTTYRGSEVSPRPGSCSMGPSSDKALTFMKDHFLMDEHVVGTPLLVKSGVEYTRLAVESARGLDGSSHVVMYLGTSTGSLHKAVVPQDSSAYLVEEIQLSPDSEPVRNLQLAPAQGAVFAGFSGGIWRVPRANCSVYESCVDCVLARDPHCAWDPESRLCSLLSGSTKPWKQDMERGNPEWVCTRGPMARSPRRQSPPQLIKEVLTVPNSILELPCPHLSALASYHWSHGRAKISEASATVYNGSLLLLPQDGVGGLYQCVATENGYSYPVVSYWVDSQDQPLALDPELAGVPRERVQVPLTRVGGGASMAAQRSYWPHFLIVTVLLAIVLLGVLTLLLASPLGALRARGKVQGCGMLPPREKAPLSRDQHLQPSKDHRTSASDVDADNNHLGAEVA
Text: as §1

B1: C0120924 (antibody, V domains shown)
VH: QVQLVQSGAEVKKPGASVKVSCKASGYKLNDPGVHGVSWVRQAPGQGLEWMGWISTLNGDTRYAQKFQGRVTMTTDSSTSTIYMELRSLRSDDTAVYYCARDDYTAIFDFWGQGTLVTVSS
VL: SSVLTQPPSVSVAPGQTARITCGGSNIGSQSVHWYQQKPGQAPVLVVYDDSDRPSGIPERFSGSKSGNTATLTISRVEAGDEADYYCQVWDSSTDHHVFGTGTKVTVL
modifications: 239iCys and S442C (EU numbering) in the constant region
notes: one of the 6 germlined clones of m49; purified, unconjugated; also called C0120924 germlined human Alya IgG1
[1]
  binding result: no binding (tested: log (M) -8 (1e-8 M))
[2]
  binding result: binds
[3]
  binding result: binds
[4]
  binding result: binds

B2: C0120920 (antibody, V domains shown)
VH: EVQLVQSGPEVKKPGASVKISCKASGYKLNDPGVHGVSWVRQAPGQGLEWMGWISTLNADTRYAQKFQGRVTMATDSSTSTIYMDLRSLKSDDTALYYCARDDYTAIFDFWGRGTLVTVSS
VL: QSVLTQPPSVSVAPGQTASITCGGSNIGSQSVHWYQQKPGQAPVLVVYDDSDRPSGIPERFSGSKSGNTASLILSRVEAGDEADYYCQVWDSSTDHHVFGTGTKVTVL
modifications: 239iCys and S442C (EU numbering) in the constant region
notes: purified, unconjugated; also called C0120920 human Alya IgG1 (unconjugated)
[1]
  binding result: no binding (tested: log (M) -8 (1e-8 M))
[3]
  binding result: binds
[4]
  binding result: binds

B3: C0120921 (antibody, V domains shown)
VH: EVQLVQSGPEVKKPGASVKISCKASGYKLNDPGVHGVSWVRQAPGQGLEWMGWISTLQGDTRYAQKFQGRVTMATDSSTSTIYMDLRSLKSDDTALYYCARDDYTAIFDFWGRGTLVTVSS
VL: QSVLTQPPSVSVAPGQTASITCGGSNIGSQSVHWYQQKPGQAPVLVVYDDSDRPSGIPERFSGSKSGNTASLILSRVEAGDEADYYCQVWDSSTDHHVFGTGTKVTVL
modifications: 239iCys and S442C (EU numbering) in the constant region
notes: purified, unconjugated; also called C0120921 human Alya IgG1 (unconjugated)
[1]
  binding result: no binding (tested: log (M) -8 (1e-8 M))
[3]
  binding result: binds
[4]
  binding result: binds

B4: C0120923 (antibody, V domains shown)
VH: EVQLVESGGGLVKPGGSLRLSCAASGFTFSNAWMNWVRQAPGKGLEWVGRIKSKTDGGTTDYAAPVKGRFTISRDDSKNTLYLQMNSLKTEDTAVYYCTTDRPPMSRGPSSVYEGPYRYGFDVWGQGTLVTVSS
VL: NFMLTQPHSVSESPGKTVTISCTGSGGNIVDNFVQWHQQRPGSSPTTVIYEDDQRPSGVPDRFSASVDSSSNSGSLTISGLKTEDEADYYCQSYDGANRWVFGGGTKLTVL
modifications: 239iCys and S442C (EU numbering) in the constant region
notes: one of the 6 germlined clones of m49; purified, unconjugated; also called C0120923 germlined human Alya IgG1
[1]
  binding result: no binding (tested: log (M) -8 (1e-8 M))
[2]
  binding result: binds
[3]
  binding result: binds
[4]
  binding result: binds
